Assay results from the RNAGym collection of RNA variant scans (doi:10.1073/pnas.2313332121).

B1: TPR t1 (parent)
chain: GACCAAUCUGCCCUCAGAGCUCGAGAACAUCUUCGGAUGCAGAGGAGGCAGGCUUCGGUGGCGCGAUAGCGCCAACGUCCUCAACCUCCAAUGCAUCCCACCACAUGAUGAUGCCUGAAGAGCCUUGGUUUUUUG

Variants of: B1
Test: polymerase ribozyme fitness, log enrichment relative to wild type (log ratio); higher = more active; in vitro selection for triplet polymerase activity
How it was run: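 Both subunits of a heterodimeric triplet polymerase ribozyme were given their own mutant library, built by PCR and transcribed. Each library was annealed with a biotinylated primer, the partner subunit and triplets, incubated frozen at −7 °C, and its extended constructs gel-excised, captured on streptavidin beads and amplified by RT-PCR, all in one round done in triplicate. Fitness is the logarithm of genotype enrichment relative to wild-type enrichment, with replicates averaged by inverse-variance weighting. That logarithm is base 2, and Illumina-sequenced genotypes needed ≥10 input reads and ≥1 read per output.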
For GACUAAUCUGCCCUCAGAGCUCGAGAACAUCUUCGGUAGCAGAGGGGGCGGGCUUCGGUGGCGCGAUAGCGCCAACGUCCUCAACCUCCAAUGCAUCCCACCACAUGAUGAUGCCUGAAGAGCCUUGGUUUUUUG [C4U A37U U38A A46G A50G], the “polymerase ribozyme fitness (log ratio)” value was -2.72.
With GACUAAUCUGCCCUCAGAGCUCGAGAACAUCUUCGGAUGCAGGGGAUGCAGGUUUCGGUGUCGCGAUAGCGCCAACGUCCUCAACCUCCAAUGCAUCCCACCACAUGAUGAUGCCUGAAGAGCCUUGGUUUUUUG [C4U A43G G47U C53U G61U] the “polymerase ribozyme fitness (log ratio)” value was -3.38.
With GACUAAUCUGCCCUCAGAGCUCGAGACCAUCUUCGGAUGCAGAGGAGGCAGGCCUCGGUGGCGCGAUAGCGCCAACGUCCUAAACCUCCAAUGCAUCCCACCACAUGAUGAUGCCUGAAGAGCCUUGGUUUUUUG [C4U A27C U54C C82A] the “polymerase ribozyme fitness (log ratio)” value was -3.17.
In the case of GACUAAUCUGCCCUCAGAGCUCGAGAACAUCUUCGGAUGCAGAGGAGGCAGGCUUAGGUGGCGCGAUAGCGCCAACGUCCUCAACCUCCAAUGCAUCCCACCACAUGAUGAUGCCUGAAGAGCCUUGGUCUUUUG [C4U C56A U130C], the “polymerase ribozyme fitness (log ratio)” value is reported as -0.451.
For GACUAAUCUGCCCUCAGAGCUCGAGAACAUCUUCGGAUGCAGAGGAGGUAGGCUUGGGUGGCGCGAUAGCGCCAACGUCCUCAACCUCCAAUGCAUCCCACCACAUGAUGAUGACUGAAGAGCCUUAGUUUUUUG [C4U C49U C56G C114A G127A], the “polymerase ribozyme fitness (log ratio)” value was -3.57.
In the case of GACUAAUCUGCCCUCAGAGCUCGAGAACAUCUUCGGAUGCAGAGGAGGUAGGCUUCGGUGGCGCGAUAGCGCCAACGUCCUCAAUCUCGAAUGCAUCCCACCACAUGAUGAUGCCUGAAGAGCCUUGGUUUUUUG [C4U C49U C85U C89G], the “polymerase ribozyme fitness (log ratio)” value is reported as -2.63.
For GACUAAUCUGACCUCAGAGCUCGAGAACAUCUUCGGAUGCAGAGGAGGCCGGCUUCGGUGGCGCGAUAGCGCCAACGUCCUCAAUCUCCAAUGCAUCCCACCACAUGAUGACGCCUGAAGAGCCUUGGUUUUUUG [C4U C11A A50C C85U U112C], the “polymerase ribozyme fitness (log ratio)” value was -1.65.
With GACUAAUCUGCCCUCAGUGCUCGAGAACAUCUUCGGAUGCAGAGGAGGCAGGCUGCGGUGGCGCGAUAGCGCCAACGUCCUCAACUUCCAAUGCAUCCCACCACAUGAUGAUGCCUGAAGAGCCUUGGUUUUUUG [C4U A18U U55G C86U] the “polymerase ribozyme fitness (log ratio)” value was -2.79.
With GACUAAUCUGCCCUCAGAGCUCGAGAACAUCUUCGGAUGCGGAGGAGGCAGGCUUCGGUGGCGCGAUAGCGCCAACGUCCUCAACCUCCAAUGCAUCCCACCACAUGAUGAUGCCUGAAGAGCCUUGGUUUUUUG [C4U A41G] the “polymerase ribozyme fitness (log ratio)” value was -0.698.
In the case of GACUAAUCUGCCCUCAGAGCUCGAGAACAUCUUCGGAUGCAGAGGUGGCAGGCUUCGGUGGCGCGAUAGCGCCAACGUCCUCAACCUCCAAUGCCUCCCACCACAUGAUGAUGCCUGAAGAGCCUUGGUUUUUUG [C4U A46U A95C], the “polymerase ribozyme fitness (log ratio)” value is reported as -2.04.
For GACUAAUCUGCCCUCAGAGCUCGAGAACAUCUUCGGAUGCAGAGGAGGCAGGCUUCGGUGGCGCGAUUGCGCCAACGUCCUCAACCUCCAAUGCAUCCCUCCACAUGAUGAUGCCUUAAGAGCCUUGGUUUUUUG [C4U A68U A100U G117U], the “polymerase ribozyme fitness (log ratio)” value was -5.92.
In the case of GACUAAUCUGCCCUCAGAGCUCGAGAACAUCUUCGGAUGCAGAGGAGGCAGGCUUCGGUGGCGAGAUCGCGCCAACGUACUCAACCUCCAAUGCAUCCCACCACAUGAUGAUGCCUGAAUAGCCUUGGUUUUUUG [C4U C64A A68C C79A G120U], the “polymerase ribozyme fitness (log ratio)” value is reported as -6.51.
For GACUAAUCUGUCCUCAGGGCUCGAGAACAUCUUUGGAUGCAGAGGAGGCAGGCUUCGGUGGCGCGAUAGCGCGAACGUCCUCAACCUCCAAUGCAUCCCACCACAUGAUGAUGCCUGAAGAGCGUUGGUUUUUUG [C4U C11U A18G C34U C73G C124G], the “polymerase ribozyme fitness (log ratio)” value was -5.4.
With GACUAAUCUGCCCUCAGAGCUCGAGAACAUCUUCGGAUGCUGAAAAGGCAGGUUUCGGUGGCCCGAUAGCGCCAACGUCCUCAACCUCCAAUGCAUCCCACCACAUGAUGAUGCCUGAAGAGCCUUGGUUUUUUG [C4U A41U G44A G45A C53U G63C] the “polymerase ribozyme fitness (log ratio)” value was -6.08.
With GACUAAUCUGCCCUCAGAGCUCGAGAACAUCUUCGGAUGCAGAGGAGGCAGGCUUUGGUGGCGCGAUAGCGCCAACGUCCUCAACCUCCAAUGCAUCCCACCACAUGAUGAUGCCUGAAGAGCCUUGGUUUUUUG [C4U C56U] the “polymerase ribozyme fitness (log ratio)” value was -0.85.
For GACUAAUCUGCCCUCAGAGCUCGAGAACAUCUUCGGAUGCAGAGGAGGCAGGCUUCGGUGGUGCGAUAGCGCCAACGUCCUCAACCUCCAAUGCAUCCCACCACAUGAUGAUGCCUGAAGAGCGUUGGUUUUUUG [C4U C62U C124G], the “polymerase ribozyme fitness (log ratio)” value was 1.31.
For GACUAAUCUGCCCUCAGAGCUCGUGAACAUCUUCGGAUGCAGAGGAGGCAGGCUUCGGUGGCGCGAUAGGGCCAACGUCCUCAACCUCCAAGGCAUCCCACCACAUGAUGAUGCCCGAACAGCCUUGGUUUUUUG [C4U A24U C70G U92G U116C G120C], the “polymerase ribozyme fitness (log ratio)” value was -6.86.
In the case of GACUAAUCUGCCCUCAGAGCUCGAGAACAUCUUCGGAUGCAGAGGAGGCAGGCUUCGGUGGCGCGAUAGAGCCAACGUCCUCAAGUUCCAAUGCAUCCCACCACAUGAUGAUGCCUGAAGAGCCUUGGUUUUUUG [C4U C70A C85G C86U], the “polymerase ribozyme fitness (log ratio)” value is reported as -3.72.
For GACUAAUGUGCCAUCAGAGCGCGAGAACAUCUUCGGAUGCAGAGGAGGCAGGCUUCGGUGGCGCGAUAGCGCCAACUUCCUAAUCCUCCAAUGCAUCCCACCACAUGAUGAUGCCUGAAGCGCCUUGGUUUUUUG [C4U C8G C13A U21G G77U C82A A84U A121C], the “polymerase ribozyme fitness (log ratio)” value was -0.469.
For GACUAAUCUGGACUCAGACCUCGAGAACAUCUUCGGAUGCAGAGGAGGCAGGCUUCGGUGGGGCGAUAGCGCCAACGUCCUCAACCUCCAAUGCAUCCCACCACAUGAUGAUGCCUGAAGAGCCUUGGUUUUUUG [C4U C11G C12A G19C C62G], the “polymerase ribozyme fitness (log ratio)” value was -4.71.
In the case of GACUAAUCUGCCUUCAGAGCUCGAGAACAUCUUCGGAUGCAAAGGAGGCAGGCUUCGGUGGCGCGAUAUCGCCAACAUCCUCAACCUCCUAUGCAUCCCACCAUAUGAUGAUGCCUGAAGAGCCUUGGUUUUUUG [C4U C13U G42A G69U G77A A90U C104U], the “polymerase ribozyme fitness (log ratio)” value is reported as -0.867.
